Our source for the Kd values is PMC12316933 (2025).

Broadly, the Kd is the free concentration of one partner at which half of the binding sites on the other are occupied at equilibrium, for simple one-to-one binding.

What all share (test): BLI
Background: Biolayer interferometry detects binding as a change in optical thickness at a sensor tip.

In experiment [1] the target is CO17 B NA (recombinant neuraminidase head of B/Colorado/06/2017, B/Victoria-lineage) (Influenza B virus B/Colorado/06/2017).
In experiment [2] the target is T1, PT09 N2 (recombinant N2 neuraminidase head of H3N2 A/Perth/16/2009) (Influenza A virus H3N2 A/Perth/16/2009).
T1 chain: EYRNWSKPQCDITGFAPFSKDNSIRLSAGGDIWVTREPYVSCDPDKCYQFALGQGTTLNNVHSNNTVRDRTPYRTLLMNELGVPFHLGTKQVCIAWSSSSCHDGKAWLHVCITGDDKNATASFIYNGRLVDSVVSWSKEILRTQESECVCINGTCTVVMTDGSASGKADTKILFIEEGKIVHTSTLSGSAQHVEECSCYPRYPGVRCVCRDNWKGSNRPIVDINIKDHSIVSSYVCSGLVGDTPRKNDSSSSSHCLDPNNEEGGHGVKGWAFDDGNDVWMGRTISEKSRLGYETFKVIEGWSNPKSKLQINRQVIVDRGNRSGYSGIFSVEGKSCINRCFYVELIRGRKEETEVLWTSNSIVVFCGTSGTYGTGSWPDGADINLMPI

Experiment [3] deals with IN11 N2 (recombinant N2 neuraminidase head of H3N2 A/Indiana/08/2011) (Influenza A virus H3N2 A/Indiana/08/2011).

B1: DA03E17 IgG (human monoclonal antibody) (antibody, V domains shown)
VH: EVQLVESGPGLVKPSQTLSLTCTVSGGSFSSGGYLWSWVRQHPGKGLEWIGYILYSGSPYYNPSLESRATISLDTSKNQFSLRLISVTAADAAMYYCARVDGSGNTDRYYFYGMDVWGQGTMVTVSS
VL: DIQMTQSPSSVSASVGDRVTITCRASRGIGDWLAWYQQKPGKAPKLLIYAASSLQRGVPSRFSGSGSGTDFTLTISSLQPDDFATYYCQQADGWEVWTFGQGTKVDVK
Regarding B1, the Kd in experiment [1] is 0.969 nM; in experiment [2], less than 0.001 nM; in experiment [3], less than 0.001 nM.

B2: DA03E17 Fab (Fab, V domains shown)
VH: EVQLVESGPGLVKPSQTLSLTCTVSGGSFSSGGYLWSWVRQHPGKGLEWIGYILYSGSPYYNPSLESRATISLDTSKNQFSLRLISVTAADAAMYYCARVDGSGNTDRYYFYGMDVWGQGTMVTVSS
VL: DIQMTQSPSSVSASVGDRVTITCRASRGIGDWLAWYQQKPGKAPKLLIYAASSLQRGVPSRFSGSGSGTDFTLTISSLQPDDFATYYCQQADGWEVWTFGQGTKVDVK
Take B2: the Kd in experiment [1] came to 913 nM; in experiment [2], 31 nM; in experiment [3], 4.53 nM.
